Experimental data from US8932825B2.

Biological target: Kringle 3 domain of human plasminogen (K3) with a C-terminal hexa-histidine tag, made in P. pastoris (human) (UniProt P00747)

**Q.** With “beta 1,4-galactosyltransferase from bovine milk (from UniProt P08037) (enzyme)” as the substance, how does the increase in mass by MALDI-TOF mass spectrometry of the protein and of its released N-glycans read?
**A.** 325 Da
